The numbers were not newly measured in PMC12442452, which cites them from elsewhere.

Data set [1] addresses T1, Cys25 (UniProt position 147, GQCGSCWAFSA). To be noted: ligand-free cruzain.
Data set [2] concerns the target His162 (UniProt position 284, SEQLDHGVLLV). As to the kind of experiment: kinetics. The note with it: apo (free) enzyme.
In data set [3] the target is T1, Cys25. As to the kind of experiment: kinetics. To be noted: apo (free) enzyme.
The target in data set [4] is Cys25 (UniProt position 158, GSCGSCWAFSA). To be noted: not stated (apo enzyme implied).

Read-outs that look alike come from different tables or passages of the source.

As to “Cruzain (cruzipain, major cysteine protease) (Trypanosoma cruzi)”, the results for the pKa in data set [1], in data set [2] and in data set [3] were 9.8, 6.6 and 9.7, respectively.
Turning to “Papain (Carica papaya (inferred; not stated in the article))”, the pKa in data set [4] is 3.3.

A word on the pKa: it is the pH at which an ionisable group is half protonated.
